Measured values published in US20170233490A1 (Hoffmann-La Roche, published 2017).
Values joined by “and” are separate entries in the source; they are usually repeats but may differ in a detail not shown here. Equal entries are not always repeated.

Legend:
HER4 ECD-HRG complex = biological target: T1, HER4 ECD-HRG complex (human, UniProt Q15303 26-651); assay: SPR Biacore T100, antibody captured, 25 C
T1 construct: HER4 ECD preincubated with a 5-fold molar excess of Heregulin
T1 sequence 1: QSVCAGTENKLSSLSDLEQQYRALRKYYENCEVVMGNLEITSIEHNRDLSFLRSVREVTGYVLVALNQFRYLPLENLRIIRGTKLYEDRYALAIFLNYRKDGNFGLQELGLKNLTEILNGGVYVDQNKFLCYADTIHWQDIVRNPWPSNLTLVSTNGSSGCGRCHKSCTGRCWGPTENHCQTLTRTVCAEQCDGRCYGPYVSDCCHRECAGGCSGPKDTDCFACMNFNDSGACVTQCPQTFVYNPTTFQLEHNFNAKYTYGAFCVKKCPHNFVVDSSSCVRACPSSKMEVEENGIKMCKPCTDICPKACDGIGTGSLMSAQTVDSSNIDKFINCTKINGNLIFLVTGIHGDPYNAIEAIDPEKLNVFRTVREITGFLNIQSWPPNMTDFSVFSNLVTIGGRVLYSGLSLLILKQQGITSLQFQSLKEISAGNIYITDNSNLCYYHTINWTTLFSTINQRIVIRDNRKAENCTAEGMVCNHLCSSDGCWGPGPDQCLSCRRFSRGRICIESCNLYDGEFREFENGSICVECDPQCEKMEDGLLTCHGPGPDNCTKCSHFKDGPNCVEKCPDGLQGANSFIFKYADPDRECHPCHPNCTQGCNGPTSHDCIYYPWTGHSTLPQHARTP
T1 sequence 2: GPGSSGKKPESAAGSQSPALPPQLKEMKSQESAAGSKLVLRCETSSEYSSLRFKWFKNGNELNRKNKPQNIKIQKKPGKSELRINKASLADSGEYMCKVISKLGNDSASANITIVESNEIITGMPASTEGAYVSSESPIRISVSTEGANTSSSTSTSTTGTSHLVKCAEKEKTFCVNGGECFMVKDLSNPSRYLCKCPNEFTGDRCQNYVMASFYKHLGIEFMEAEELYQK
Experimental: (§1) A CM5 series sensor was mounted into the system and was normalized in HBS-ET buffer (10 mM HEPES pH 7.4, 150 mM NaCl, 3 mM EDTA, 0.005% w/v Tween 20) according to the manufacturer's instructions. The sample buffer was the system buffer supplemented with 1 mg/ml CMD (Carboxymethyldextran, Sigma #86524). The system operated at 25° C. 6500 RU RAM-Fcγ (relative units of Fcγ-fragment RamIgG, GE Healthcare) were immobilized according to the manufacturer's instructions using EDC/NHS chemistry on all four flow cells. The sensor was deactivated using 1M ethanolamine.
(§2) The binding activity of the respective antibody against the analytes was kinetically tested. Antibodies were captured at 35 nM concentration by a 1 min injection at 5 μl/min. The flow rate was set to 100 μl/min.
(§3) Analytes in solution were injected at different concentration steps of 0 nM, 1.1 nM, 3.7 nM, 11.1 nM, 33.1 nM and 90 nM for 3.5 min. The dissociation was monitored for 15 min. Where possible, kinetic signatures were evaluated according to a Langmuir fit.

[1] = biological target: T2, human HER2 Extracellular Domain (ECD) (human, UniProt P04626 23-652); assay: SPR Biacore T100, antibody captured, 25 C
T2 construct: human recombinant, 69.6 kDa; also called Her2 ECD; HER2_ECD
Experimental: as §1, §2, §3

[2] = biological target: T3, human Heregulin fragment (HRG) (human); assay: SPR Biacore T100, antibody captured, 25 C
T3 construct: 44 kDa homodimeric protein, expressed in FreeStyle 293-F cells; also called Heregulin beta; HRG1β
T3 chain: T1 sequence 2
Experimental: as §1, §2, §3

HER3 ECD-HRG complex = biological target: T4, HER3 ECD-HRG complex (human, UniProt P21860 20-643); assay: SPR Biacore T100, antibody captured, 25 C
T4 construct: HER3 ECD preincubated with a 3- to 6-fold molar excess of Heregulin ('open' conformation); biotinylated Her3-ECD in the ribosome display; also called HER3-ECD/HRG1β
Experimental: as §1, §2, §3

[3] = biological target: T5, human HER3 Extracellular Domain (ECD) (human, UniProt P21860 20-643); assay: SPR Biacore T100, antibody captured, 25 C
T5 construct: human recombinant, 68 kDa; 'closed' conformation without ligand; also called Her3 ECD; Her-3 ECD
Experimental: as §1, §2, §3

[4] = biological target: T6, human HER4 Extracellular Domain (ECD) (human, UniProt Q15303 26-651); assay: SPR Biacore T100, antibody captured, 25 C
T6 construct: also called Her4 ECD; HER4-ECD
T6 sequence: T1 sequence 1
Experimental: as §1, §2, §3

TtSlyDcas-Her3 = biological target: T7, TtSlyDcas-Her3; assay: ELISA, coated antigen
T7 chain: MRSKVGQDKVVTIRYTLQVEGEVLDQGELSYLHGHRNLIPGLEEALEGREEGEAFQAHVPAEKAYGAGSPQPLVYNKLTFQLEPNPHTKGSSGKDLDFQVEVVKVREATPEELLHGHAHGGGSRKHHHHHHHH
Experimental: (§4) For the ELISA the screening an antigen down format was used. […] Hybridoma Supernatant was added to the plates and incubated for 1 h at room temperature. Bound antibody was detected with a HRP-labeled F(ab′)₂ goat anti-mouse Fcγ (Dianova) and ABTS (Roche) was used as a HRP-substrate.
(§5) As negative controls the scaffold proteins TtSlyDcas and TgSlyDΔIF were used.

TtSlyDcys-Her3 = biological target: T8, TtSlyDcys-Her3; assay: ELISA, coated antigen
T8 chain: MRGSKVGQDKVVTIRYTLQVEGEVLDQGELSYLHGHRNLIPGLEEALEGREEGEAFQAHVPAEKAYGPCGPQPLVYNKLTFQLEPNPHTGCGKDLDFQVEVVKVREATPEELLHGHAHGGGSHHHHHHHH
Experimental: as §4, §5

[5] = biological target: T2, human HER2 Extracellular Domain (ECD); assay: ELISA, coated antigen
Experimental: as §4, §5

TtSlyDcas = biological target: T9, TtSlyDcas; assay: ELISA, coated antigen
T9 construct: scaffold without hairpin insert, negative control
T9 chain: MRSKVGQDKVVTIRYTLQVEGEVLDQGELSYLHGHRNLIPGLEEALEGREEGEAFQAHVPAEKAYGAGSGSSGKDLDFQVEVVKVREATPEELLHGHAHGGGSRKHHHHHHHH
Experimental: as §4, §5

[6] = biological target: T5, human HER3 Extracellular Domain (ECD); assay: ELISA, coated antigen
Experimental: as §4, §5

B1: anti-HER3/HER4 antibody M-05-74 (antibody, V domains shown)
VH: QVQLQQSGAELAKPGASVKMSCKTSGYTLTDYWIHWVKQRPGQGLEWIGYINPYTGYTESNQKFKDKATLTADKSSNTAYIQLSSLTSEDSAVYYCARPYYYGDYWGQGTTLTVSS
VL: QIVLTQSPAIMSASPGERVTITCSASSSVSYMHWFQQKPGTSPKLLIYSTSNLASGVPARFSGSGSGTSYSLTISRMEAEDAATYYCQQRSSYPFTFGSGTKLEIK
notes: murine monoclonal IgG from hybridoma (supernatant or purified), bivalent; also called M-074; M-5-74
With B1 the “BL (Binding Late)” value (HER4 ECD-HRG complex) was 349 RU, the Kd (HER4 ECD-HRG complex) was 5.2 nM and 5 nM and the “MR (Molar Ratio)” value (HER4 ECD-HRG complex) was 0.6. For the same binder, the koff (HER4 ECD-HRG complex) was 0.00083 s⁻¹, the kon (HER4 ECD-HRG complex) was 160000 M⁻¹ s⁻¹ and the binding result [1] was “no binding (tested: up to 90 nM)”. The binding result [2] was “no binding (tested: up to 90 nM)”, the “BL (Binding Late)” value (HER3 ECD-HRG complex) was 160 RU and the Kd (HER3 ECD-HRG complex) was 4.2 nM and 4 nM. For the same binder, the “MR (Molar Ratio)” value (HER3 ECD-HRG complex) was 0.6, the koff (HER3 ECD-HRG complex) was 0.00027 s⁻¹ and the kon (HER3 ECD-HRG complex) was 63000 M⁻¹ s⁻¹. The “BL (Binding Late)” value [3] was 70 RU, the Kd [3] was 2.2 nM and 2 nM and the “MR (Molar Ratio)” value [3] was 0.2. For the same binder, the koff [3] was 2.8e-05 s⁻¹, the kon [3] was 13000 M⁻¹ s⁻¹ and the “BL (Binding Late)” value [4] was 27 RU. For the same binder, the Kd [4] was 150 nM, the “MR (Molar Ratio)” value [4] was 0.1 and the ELISA signal (TtSlyDcas-Her3) was 3.13. The ELISA signal (TtSlyDcys-Her3) was 3.15, the ELISA signal [5] was 0.02 and the ELISA signal (TtSlyDcas) was 0.023. The ELISA signal [6] was 3.15.
